# According to patent US20230121197A1, “ANTIBODIES SPECIFICALLY BINDING THE CARBOXYMETHYLATED CATALYTIC SUBUNIT OF PROTEIN PHOSPHATASE 2A” (Medizinische Universität Wien, priority 2020, published 2023):
# T1: PP2Ac C-terminal peptide meL309, ac-HVTRRTPDYFL-CH3 (α-carboxymethylated) (human, SMILES …)
# T1 construct: also called Y307-meL309; mePP2Ac
# T1 peptide: Ac-HVTRRTPDYFL-OMe
# Legend:
# [1] = biological target: T1, PP2Ac C-terminal peptide meL309, …; assay: SPR, ratio of steady-state KD values
# Text: (A) Saturation curve of the titration of the α-carboxymethylated PP2Ac C-terminal peptide (SEQ ID NO:18) on 7C10-C5 or 2A10 immobilized on a Series S Sensor Chip CM5 (GE Healthcare, 10296958). […] (B) Saturation curve of the titration of the α-carboxymethylated PP4c C-terminal peptide (SEQ ID NO:20) on 7C10-C5 or 2A10 immobilized on a Series S Sensor Chip CM5 (GE Healthcare, 10296958). […] The KD values were obtained using the fitting tool of the BiacoreT200 Evaluation Software (version 3.1).
# (§1) The differential affinity of anti-carboxymethylated PP2Ac antibodies, 7C10-C5 and 2A10, to carboxymethylated PP2A catalytic subunit versus noncarboxymethylated PP2A catalytic subunit was determined by surface plasmon resonance (SPR) on a Biacore T200 (GE Healthcare) at the Core Facility Biomolecular & Cellular Analysis (University of Natural Resources and Life Sciences Vienna BOKU). The affinity of 7C10-C5 for carboxymethylated and noncarboxymethylated catalytic subunit of PP4 (PP4c), a PP2A-related phosphatase, was also determined.
# [2] = biological target: T2, carboxymethylated PP2Ac C-terminal peptide (ac-[…]-CH3) (Homo sapiens, UniProt P67775); assay: Surface plasmon resonance (Biacore T200), steady state analysis, carboxymethylated PP2Ac peptide; type: binding
# T2 construct: The following 11-mer peptides corresponding to the carboxymethylated or non-methylated carboxy-terminus of PP2A and PP4 catalytic subunits were used as antigens
# Protocol: as §1, with “determined. […] The KD of the binding of 7C10-C5 (or 2A10) to non-carboxymethylated PP2Ac or PP4c could not be determined because at the highest analyte sample concentration (5000 nM) only very weak binding signals were detected indicating KD values of at least >5000 nM or higher. […]” for “determined.”
# SPR experiments were performed with the BiacoreT200 instrument (Cytiva). […] The sensorgrams obtained were analyzed with BiacoreT200 Evaluation Software (version 3.1). […]
Molecule,fold stronger binding than to carboxymethylated PP4c (ratio of KD) [1] [fold],"Kd ([2]; SPR steady-state affinity model, carboxymethylated PP2Ac 11-mer peptide (SEQ ID NO:18)) [nM]","Rmax ([2]; steady state analysis, PP2A Me peptide, 360 sec contact time, 40 μL/min) [RU]"
"7C10-C5 monoclonal antibody (antibody, V domains shown, Used as hybridoma culture supernatant (ELISA, Western blot, IHC) or at 50 µg/mL (SPR); also called 7C10 X63; clone 7C10-C5) VH: DVQLQESGPGLVKPSQSLSLTCSVTGYSITSGYYWNWIRQFPGNKLEWMGYISYDGSNNYNPSLKNRISITRDTSKNQFFLKLNSVTTEDTATYYCAGRFAYWGQGTLVTVSA VL: DVLMTQTPLSLPVSLGDQASISCRSSQSIVHSNGNTYLEWYLQKPGQSPKLLIYKVSNRFSGVPDRFSGSGSGTDFTLKINRVEAEDLGVYYCFQGSHVPWTFGGGTKLEIK",12,–,–
"7C10-C5: α-carboxymethylation specific mouse monoclonal IgG1 antibody from single clone hybridoma 7C10-C5 (DSM ACC3350) (antibody, Amino acid sequence of the recombinant 7C10-C5 heavy chain; Amino acid sequence of the recombinant 7C10-C5 light chain) heavy: MYRMQLLSCIALSLALVTNSDVQLQESGPGLVKPSQSLSLTCSVTGYSITSGYYWNWIRQFPGNKLEWMGYISYDGSNNYNPSLKNRISITRDTSKNQFFLKLNSVTTEDTATYYCAGRFAYWGQGTLVTVSAAKTTAPSVYPLAPVCGDTTGSSVTLGCLVKGYFPEPVTLTWNSGSLSSGVHTFPAVLQSDLYTLSSSVTVTSSTWPSQSITCNVAHPASSTKVDKKIEPRGPTIKPCPPCKCPAPNLLGGPSVFIFPPKIKDVLMISLSPIVTCVVVDVSEDDPDVQISWFVNNVEVHTAQTQTHREDYNSTLRVVSALPIQHQDWMSGKEFKCKVNNKDLPAPIERTISKPKGSVRAPQVYVLPPPEEEMTKKQVTLTCMVTDFMPEDIYVEWTNNGKTELNYKNTEPVLDSDGSYFMYSKLRVEKKNWVERNSYSCSVVHEGLHNHHTTKSFSRTPGK light: MDMRVPAQLLGLLLLWLSGARCDVLMTQTPLSLPVSLGDQASISCRSSQSIVHSNGNTYLEWYLQKPGQSPKLLIYKVSNRFSGVPDRFSGSGSGTDFTLKINRVEAEDLGVYYCFQGSHVPWTFGGGTKLEIKADAAPTVSIFPPSSEQLTSGGASVVCFLNNFYPKDINVKWKIDGSERQNGVLNSWTDQDSKDSTYSMSSTLTLTKDEYERHNSYTCEATHKTSTSPIVKSFNRNEC",–,≤ 20,25.14
